One test concerns the target BBS4 (UniProt Q96RK4). Description: GFP-Trap co-IP, immunoblot. Particulars: reference: EGFP-PCM1-WT*; sites S372. In general terms: A western blot detects proteins with antibodies after separation by electrophoresis.
For another test, the target named is Cep290 (UniProt O15078). Description: GFP-Trap co-IP, immunoblot. The settings on record: reference: EGFP-PCM1-WT*; sites S372.
Another test deals with PCM1 (UniProt Q15154). Description: RFP-Trap co-IP, mCherry-PCM1 with EGFP-PCM1. Particulars: reference: mCherry-PCM1-WT* with EGFP-PCM1-WT*; sites S372.
The next test concerns the target T1, His‐PCM1 (a.a. 1–1,128) (human, UniProt Q15154 1-1128).
T1 sequence (looked up): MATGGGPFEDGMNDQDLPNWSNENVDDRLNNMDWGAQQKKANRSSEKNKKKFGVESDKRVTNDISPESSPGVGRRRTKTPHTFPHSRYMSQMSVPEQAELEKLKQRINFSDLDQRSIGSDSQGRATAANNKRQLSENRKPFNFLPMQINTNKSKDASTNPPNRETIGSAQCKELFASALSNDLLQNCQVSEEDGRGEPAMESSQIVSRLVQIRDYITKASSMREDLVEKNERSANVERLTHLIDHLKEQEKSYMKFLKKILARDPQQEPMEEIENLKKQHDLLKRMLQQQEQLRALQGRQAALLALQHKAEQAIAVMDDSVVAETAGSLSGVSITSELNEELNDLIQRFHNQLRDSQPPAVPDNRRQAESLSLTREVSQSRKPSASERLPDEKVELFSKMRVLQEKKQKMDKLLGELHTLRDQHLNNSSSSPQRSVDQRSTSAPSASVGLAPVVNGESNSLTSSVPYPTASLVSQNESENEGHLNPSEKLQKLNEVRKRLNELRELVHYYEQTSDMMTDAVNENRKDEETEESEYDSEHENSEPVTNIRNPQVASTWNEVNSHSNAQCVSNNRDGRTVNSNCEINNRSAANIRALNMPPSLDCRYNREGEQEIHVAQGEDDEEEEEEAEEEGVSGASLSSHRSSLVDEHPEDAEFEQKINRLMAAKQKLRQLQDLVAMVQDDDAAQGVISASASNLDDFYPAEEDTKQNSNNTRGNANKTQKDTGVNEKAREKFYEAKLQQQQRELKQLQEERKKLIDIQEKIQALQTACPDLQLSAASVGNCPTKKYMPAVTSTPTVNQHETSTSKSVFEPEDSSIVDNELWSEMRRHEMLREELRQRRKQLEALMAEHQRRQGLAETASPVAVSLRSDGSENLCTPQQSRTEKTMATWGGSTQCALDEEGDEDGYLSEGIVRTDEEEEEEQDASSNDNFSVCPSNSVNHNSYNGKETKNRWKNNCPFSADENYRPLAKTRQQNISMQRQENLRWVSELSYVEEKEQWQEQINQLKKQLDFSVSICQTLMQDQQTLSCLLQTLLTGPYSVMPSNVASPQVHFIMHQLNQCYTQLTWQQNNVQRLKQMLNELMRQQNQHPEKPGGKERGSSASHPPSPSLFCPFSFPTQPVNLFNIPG
Description: pull-down; MBP-Plk4 on Dynabeads Protein G coupled with anti-MBP antibody; 8 μg His-PCM1(1128) in 600 μl binding buffer (50 mM Tris-HCl pH 7.5, 200 mM NaCl, 2 mM MgCl2, 0.5 mg/ml BSA, 0.05% NP-40), 4°C, 2 h; Coomassie and anti-His blot. The settings on record: both partners purified.

For “PCM1 (from UniProt Q15154) EGFP-PCM1-S372A*”, the “binding against the reference” value in the test with BBS4 and in the test with Cep290 was “weaker” in each case. “PCM1 (from UniProt Q15154) mCherry-PCM1-S372A* with EGFP-PCM1-WT*”: in the test with PCM1, the “binding against the reference” value is reported as “weaker”.

B1: MBP‐Plk4‐WT (enzyme, UniProt O00444 1-970, looked up)
chain: MATCIGEKIEDFKVGNLLGKGSFAGVYRAESIHTGLEVAIKMIDKKAMYKAGMVQRVQNEVKIHCQLKHPSILELYNYFEDSNYVYLVLEMCHNGEMNRYLKNRVKPFSENEARHFMHQIITGMLYLHSHGILHRDLTLSNLLLTRNMNIKIADFGLATQLKMPHEKHYTLCGTPNYISPEIATRSAHGLESDVWSLGCMFYTLLIGRPPFDTDTVKNTLNKVVLADYEMPSFLSIEAKDLIHQLLRRNPADRLSLSSVLDHPFMSRNSSTKSKDLGTVEDSIDSGHATISTAITASSSTSISGSLFDKRRLLIGQPLPNKMTVFPKNKSSTDFSSSGDGNSFYTQWGNQETSNSGRGRVIQDAEERPHSRYLRRAYSSDRSGTSNSQSQAKTYTMERCHSAEMLSVSKRSGGGENEERYSPTDNNANIFNFFKEKTSSSSGSFERPDNNQALSNHLCPGKTPFPFADPTPQTETVQQWFGNLQINAHLRKTTEYDSISPNRDFQGHPDLQKDTSKNAWTDTKVKKNSDASDNAHSVKQQNTMKYMTALHSKPEIIQQECVFGSDPLSEQSKTRGMEPPWGYQNRTLRSITSPLVAHRLKPIRQKTKKAVVSILDSEEVCVELVKEYASQEYVKEVLQISSDGNTITIYYPNGGRGFPLADRPPSPTDNISRYSFDNLPEKYWRKYQYASRFVQLVRSKSPKITYFTRYAKCILMENSPGADFEVWFYDGVKIHKTEDFIQVIEKTGKSYTLKSESEVNSLKEEIKMYMDHANEGHRICLALESIISEEERKTRSAPFFPIIIGRKPGSTSSPKALSPPPSVDSNYPTRERASFNRMVMHSAASPTQAPILNPSMVTNEGLGLTTTASGTDISSNSLKDCLPKSAQLLKSVFVKNVGWATQLTSGAVWVQFNDGSQLVVQAGVSSISYTSPNGQTTRYGENEKLPDYIKQKLQCLSSILLMFSNPTPNFH
Turning to B1, in the test with His‐PCM1 (a.a. 1–1,128), the binding result is reported as “binds”.

These data come from paper PMC4772974 (EMBO Reports, 2016).
